Measurements: PMC3631714 (Chembiochem : a European journal of chemical biology, 2012)

B1: first Sam domain of Odin (Odin-Sam1) (domain or fragment, human, UniProt Q92625 691-770, looked up)
chain: ISGLRTLEQSVGEWLESIGLQQYESKLLLNGFDDVHFLGSNVMEEQDLRDIGISDPQHRRKLLQAARSLPKVKALGYDGN
B2: Arap3-Sam wild-type (domain or fragment, human, UniProt Q8WWN8 1-80, looked up)
chain: MAAPQDLDIAVWLATVHLEQYADTFRRHGLATAGAARGLGHEELKQLGISATGHRKRILRLLQTGTEEGSLDPKSDSAME
B3: Sam domain of the EphA2 receptor (EphA2-Sam) (domain or fragment, human, UniProt P29317 901-976, looked up)
chain: SEGVPFRTVSEWLESIKMQQYTEHFMAAGYTAIEKVVQMTNDDIKRIGVRLPGHQKRIAYSLLGLKDQVNTVGIPI

What was measured:
Arap3-Sam wild-type = target: B2; assay: SPR
[1] = target: B1; assay: ITC
[2] = target: B1; assay: NMR titration

B1 was tested, and the Kd (Arap3-Sam wild-type) was 2900 ± 400 nM.

With B2 the Kd [1] was 370 ± 80 nM.

B3: binds [2].
